Data as given in article PMC10172140.
One block for each substance: values may come before it.

Key:
KOR R156^3.50A (human) = KOR R156^3.50A (human) (UniProt P41145)
[1] = target: κ-opioid receptor in homogenous membrane fractions expressing KOR (human) (UniProt P41145)
[2] = target: BRIL-wt-KOR(54–368) reconstituted into nanodiscs (human) (UniProt P41145)
KOR N336^8.49A (human) = KOR N336^8.49A (human) (UniProt P41145)

efficacy of GR89,696-mediated Gg activation, BRET2, normalized to U50,488 (KOR R156^3.50A (human)): 46%
efficacy of momSalB-mediated Gg activation, BRET2, normalized to U50,488 (KOR R156^3.50A (human)): 38%
efficacy of GR89,696-mediated Gg activation, BRET2, normalized to U50,488 [1]: 103%
efficacy of momSalB-mediated Gg activation, BRET2, normalized to U50,488 [1]: 106%
fold increase of the high-affinity binding sites (Bmax) for the agonist radioligand ^3H-U69,593 in saturation binding, with 1 μM G protein against KOR alone [2]: 7 fold
Substance: wild-type Gg (gustducin) heterotrimeric G protein (from UniProt A8MTJ3 1-354; P62873 1-340; P59768 1-71) (complex)

loss in potency of agonist-mediated Gi1 coupling against wild-type KOR, BRET2 (KOR N336^8.49A (human)): 2 fold
fold increase of the high-affinity binding sites (Bmax) for the agonist radioligand ^3H-U69,593 in saturation binding, with 1 μM G protein against KOR alone [2]: 62 fold
Substance: wild-type Gi1 heterotrimeric G protein (from UniProt P63096 1-354; P62873 1-340; P59768 1-71) (complex)

loss in potency of agonist-mediated GoA coupling against wild-type KOR, BRET2 (KOR N336^8.49A (human)): 14 fold
fold increase of the high-affinity binding sites (Bmax) for the agonist radioligand ^3H-U69,593 in saturation binding, with 1 μM G protein against KOR alone [2]: 38 fold
Substance: wild-type GoA heterotrimeric G protein (from UniProt P09471 1-354; P62873 1-340; P59768 1-71) (complex)

loss in potency of agonist-mediated Gz coupling against wild-type KOR, BRET2 (KOR N336^8.49A (human)): 9 fold
fold increase of the high-affinity binding sites (Bmax) for the agonist radioligand ^3H-U69,593 in saturation binding, with 1 μM G protein against KOR alone [2]: 14 fold
Substance: wild-type Gz heterotrimeric G protein (from UniProt P19086 1-355; P62873 1-340; P59768 1-71) (complex)
